Experimental data: patent US20070099199A1 (published 2007)
Values joined by “and” are separate entries in the source; they are usually repeats but may differ in a detail not shown here. Identical values can stand only once.

B1: TIP-TIP-IgG fusion protein (two copies of the TIP-1 PDZ domain fused to the hIgG constant region) (Fc fusion)
chain: QRVEIHKLRQGENLILGFSIGGGIDQDPSQNPFSEDKTDKGIYVTRVSEGGPAEIAGLQIGDKIMQVNGWDMTMVTHDQARKRLTKRSEEVVRLLVTRQSLQKQRVEIHKLRQGENLILGFSIGGGIDQDPSQNPFSEDKTDKGIYVTRVSEGGPAEIAGLQIGDKIMQVNGWDMTMVTHDQARKRLTKRSEEVVRLLVTRQSLQK
notes: domain: PDZ domain; not shown: hIgG constant region of the CD5gamma or PEAK10 vector

Columns and labels:
[1] = target: HPV E6 #16 PDZ ligand peptide (C-terminal peptide of the E6 protein of HPV 16) (HPV 16) (UniProt P03126); assay: G assay ELISA, immobilised GST-PDZ, biotin peptide 10 uM
[2] = target: HPV16 E6 C-terminal PDZ ligand (PL) peptide, biotinylated (human papillomavirus type 16) (UniProt P03126); assay: G assay ELISA; immobilised GST-PDZ, biotin-peptide 10 uM
[3] = target: HPV16 E6 C-terminal PDZ ligand (PL) peptide, biotinylated (human papillomavirus type 16) (UniProt P03126); assay: G assay ELISA; E6 PL peptide titrated on constant GST-PDZ
[4] = target: HPV16 E6 C-terminal PDZ ligand (PL) peptide, biotinylated (human papillomavirus type 16) (UniProt P03126); assay: Matrix/G assay ELISA; E6 peptide titrated on GST-PDZ
[5] = target: T1, GST-HPV11E6 fusion protein (full length E6 of HPV11) (human papillomavirus 11, UniProt P04019 1-150); assay: modified ELISA: GST-E6 coated at 5 ug/ml, TIP-TIP-IgG supernatant, anti-hIgG-HRP
T1 construct: domain: full length protein

| Molecule | Ave OD [1] | OD S/N (ratio to GST-only well) [1] | Ave OD [2] | OD S/N (ratio vs GST only) [2] | other results |
| --- | --- | --- | --- | --- | --- |
| GST-INADL PDZ domain 3 | 0.485 A450 nm | 1.86 |  |  |  |
| GST-EZRIN Binding Protein 50 PDZ domain 1, clone #341.1 |  |  | 0.43 A450 nm | 1.65 |  |
| GST-SAST2 PDZ domain 1 |  |  |  |  | EC50 [3]: 1200 nM; EC50 [4]: 1200 nM |
| GST-NSP PDZ domain 1, clone #42.5 |  |  | 0.416 A450 nm | 1.95 |  |
| GST-Magi2 PDZ domain 3 (from UniProt Q86UL8 774-865) |  |  | 0.416 A450 nm and 0.359 A450 nm | 1.98 and 1.65 |  |
| GST-AF6 PDZ domain 1 |  |  | 0.444 A450 nm | 1.8 |  |
| GST-NSP #268.2 PDZ domain 1 | 0.724 A450 nm | 2.58 |  |  |  |
| GST-PAR3 PDZ domain 3, clone #278.1 |  |  | 0.352 A450 nm | 1.8 |  |
| GST-KIAA1526 #126.1 PDZ domain 2 | 0.463 A450 nm | 1.87 |  |  |  |
| GST-TAX IP 2 PDZ domain 1 | 0.508 A450 nm and 0.478 A450 nm | 2.37 and 2.48 |  |  |  |
| GST-PDZ-73 PDZ domain 2 | 0.561 A450 nm | 1.95 |  |  |  |
| GST-PDZK1 PDZ domain 3 | 0.5 A450 nm | 1.92 |  |  |  |
| GST-Magi3 PDZ domain 1 (from UniProt Q5TCQ9 18-106) |  |  |  |  | EC50 [3]: 310 nM; EC50 [4]: 310 nM |
| GST-Densin 180 PDZ domain 1 |  |  | 0.42 A450 nm and 0.35 A450 nm | 1.96 and 1.82 |  |
| GST-NeDLG PDZ domain 1 | 0.516 A450 nm | 1.98 |  |  |  |
| GST-MAGI 1 PDZ domain 5 | 0.541 A450 nm | 3.12 |  |  |  |
| GST-DLG-6 PDZ domain 1, clone #333.1 |  |  | 0.349 A450 nm | 2.04 |  |
| GST-MAGI1 PDZ domain 5 |  |  | 0.432 A450 nm | 1.77 |  |
| B1 |  |  |  |  | binding result [5]: no binding |
